Assay results: the supplement of paper PMC5998384

What was measured:
[1] = tested on: HeLa Kyoto; assay: solubility in G1/S (NP-40 vs SDS abundance) (log2 ratio); higher = more soluble; conditions: cell cycle stage: G1/S
[2] = tested on: HeLa Kyoto; assay: thermal stability score vs G1/S (z-score of summed log2 fold changes over temperatures); higher = more thermally stable than in G1/S
[3] = tested on: HeLa Kyoto; assay: melting temperature (median over replicates), in situ; higher = more thermally stable
[4] = tested on: HeLa Kyoto; assay: solubility change mitosis vs G1/S (difference of NP-40 vs SDS log2 ratios) (log2 ratio difference); higher = more soluble in mitosis
[5] = cell cycle stage: early G1 (4.5 h after nocodazole release)
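Throughout, for melting temperature (median over replicates), in situ: HeLa Kyoto cells synchronized by double thymidine or nocodazole block, proteins quantified by TMT10plex mass spectrometry, three independent biological replicates.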
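Throughout, for solubility change mitosis vs G1/S (difference of NP-40 vs SDS log2 ratios): synchronized HeLa Kyoto cells (double thymidine block for G1/S, nocodazole release for mitosis), protein amounts in NP-40 versus SDS lysates quantified by mass spectrometry, three biological replicates.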
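Throughout, for solubility in G1/S (NP-40 vs SDS abundance): HeLa Kyoto cells arrested at G1/S by double thymidine block, proteins quantified by TMT10plex mass spectrometry in mild NP-40 versus SDS extracts, three biological replicates.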
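Throughout, for thermal stability score vs G1/S (z-score of summed log2 fold changes over temperatures): synchronized HeLa Kyoto cells, proteins quantified by TMT10plex mass spectrometry, three biological replicates, mitosis taken 0.5 h after nocodazole release, G1/S directly after double thymidine block.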

Sequence | solubility in G1/S (log2) [1] | thermal stability score [2, 5] | thermal stability score ([2]; cell cycle stage: mitosis) | melting temperature ([3]; cell cycle stage: G1/S) [°C] | melting temperature ([3]; cell cycle stage: mitosis) [°C] | solubility change mitosis (log2) [4]
MVSIPEYYEGKNVLLTGATGFLGKVLLEKLLRSCPKVNSVYVLVRQKAGQTPQERVEEVLSGKLFDRLRDENPDFREKIIAINSELTQPKLALSEEDKEVIIDSTNIIFHCAATVRFNENLRDAVQLNVIATRQLILLAQQMKNLEVFMHVSTAYAYCNRKHIDEVVYPPPVDPKKLIDSLEWMDDGLVNDITPKLIGDRPNTYIYTKALAEYVVQQEGAKLNVAIVRPSIVGASWKEPFPGWIDNFNGPSGLFIAAGKGILRTIRASNNALADLVPVDVVVNMSLAAAWYSGVNRPRNIMVYNCTTGSTNPFHWGEVEYHVISTFKRNPLEQAFRRPNVNLTSNHLLYHYWIAVSHKAPAFLYDIYLRMTGRSPRMMKTITRLHKAMVFLEYFTSNSWVWNTENVNMLMNQLNPEDKKTFNIDVRQLHWAEYIENYCLGTKKYVLNEEMSGLPAARKHLNKLRNIRYGFNTILVILIWRIFIARSQMARNIWYFVVSLCYKFLSYFRASSTMRY [FAR1] | -0.254 | 0.0485 | 0.111 | 51.7 | 51.2 | -0.0436
MAAAVPQRAWTVEQLRSEQLPKKDIIKFLQEHGSDSFLAEHKLLGNIKNVAKTANKDHLVTAYNHLFETKRFKGTESISKVSEQVKNVKLNEDKPKETKSEETLDEGPPKYTKSVLKKGDKTNFPKKGDVVHCWYTGTLQDGTVFDTNIQTSAKKKKNAKPLSFKVGVGKVIRGWDEALLTMSKGEKARLEIEPEWAYGKKGQPDAKIPPNAKLTFEVELVDID [FKBP3] | 0.57 | 0.0401 | -2.71 | 54.2 | 54.4 | 0.226
MWLEILLTSVLGFAIYWFISRDKEETLPLEDGWWGPGTRSAAREDDSIRPFKVETSDEEIHDLHQRIDKFRFTPPLEDSCFHYGFNSNYLKKVISYWRNEFDWKKQVEILNRYPHFKTKIEGLDIHFIHVKPPQLPAGHTPKPLLMVHGWPGSFYEFYKIIPLLTDPKNHGLSDEHVFEVICPSIPGYGFSEASSKKGFNSVATARIFYKLMLRLGFQEFYIQGGDWGSLICTNMAQLVPSHVKGLHLNMALVLSNFSTLTLLLGQRFGRFLGLTERDVELLYPVKEKVFYSLMRESGYMHIQCTKPDTVGSALNDSPVGLAAYILEKFSTWTNTEFRYLEDGGLERKFSLDDLLTNVMLYWTTGTIISSQRFYKENLGQGWMTQKHERMKVYVPTGFSAFPFELLHTPEKWVRFKYPKLISYSYMVRGGHFAAFEEPELLAQDIRKFLSVLERQ [EPHX1] | -0.336 | -3.88 | -2.14 | 57.9 | 58.1 | -0.197
MAEMATATRLLGWRVASWRLRPPLAGFVSQRAHSLLPVDDAINGLSEEQRQLRQTMAKFLQEHLAPKAQEIDRSNEFKNLREFWKQLGNLGVLGITAPVQYGGSGLGYLEHVLVMEEISRASGAVGLSYGAHSNLCINQLVRNGNEAQKEKYLPKLISGEYIGALAMSEPNAGSDVVSMKLKAEKKGNHYILNGNKFWITNGPDADVLIVYAKTDLAAVPASRGITAFIVEKGMPGFSTSKKLDKLGMRGSNTCELIFEDCKIPAANILGHENKGVYVLMSGLDLERLVLAGGPLGLMQAVLDHTIPYLHVREAFGQKIGHFQLMQGKMADMYTRLMACRQYVYNVAKACDEGHCTAKDCAGVILYSAECATQVALDGIQCFGGNGYINDFPMGRFLRDAKLYEIGAGTSEVRRLVIGRAFNADFH [IVD] | 0.138 | -0.748 | -4.11 | 54 | 53.8 | -0.107
MALQLGRLSSGPCWLVARGGCGGPRAWSQCGGGGLRAWSQRSAAGRVCRPPGPAGTEQSRGLGHGSTSRGGPWVGTGLAAALAGLVGLATAAFGHVQRAEMLPKTSGTRATSLGRPEEEEDELAHRCSSFMAPPVTDLGELRRRPGDMKTKMELLILETQAQVCQALAQVDGGANFSVDRWERKEGGGGISCVLQDGCVFEKAGVSISVVHGNLSEEAAKQMRSRGKVLKTKDGKLPFCAMGVSSVIHPKNPHAPTIHFNYRYFEVEEADGNKQWWFGGGCDLTPTYLNQEDAVHFHRTLKEACDQHGPDLYPKFKKWCDDYFFIAHRGERRGIGGIFFDDLDSPSKEEVFRFVQSCARAVVPSYIPLVKKHCDDSFTPQEKLWQQLRRGRYVEFNLLYDRGTKFGLFTPGSRIESILMSLPLTARWEYMHSPSENSKEAEILEVLRHPRDWVR [CPOX] | 0.131 | -0.749 | -1.47 | 55 | 55 | -0.135
